Reference: patent publication US20150010574A1 (Boehringer Ingelheim, published 2015)

Key:
[1] = target: T1, mouse IGF-1 (mouse, UniProt P05017 49-118); experiment: direct ELISA, mouse IGF-1 coated on the plate, anti-human IgG-HRPO, OD 450 nm
T1 construct: Bought recombinant protein; also called murine IGF-1
Procedure: (§1) Fully human IgG1 antibodies that bound with high affinity to IGF-1 are also tested for binding to human IGF-1 in direct immunosorbent assays (ELISA). Assays are performed by coating human IGF-1 (R&D Systems, No. 291-G1) to 96-well Maxisorb plates at a concentration of 0.5 μg/ml overnight at 4° C. (100 μl/well). Coating buffer alone is used as a control for unspecific binding. Wells are then washed once with washing buffer (1×TBS-T) and residual binding sites are blocked with 200 μl blocking buffer for 1 hour at room temperature on an orbital shaker followed by a further wash cycle. Serial three-fold dilutions of each test antibody in blocking buffer are prepared directly on the coated plates. […] Blocking buffer alone is used as a positive control. The plates are then incubated for 2 hours at room temperature with agitation. After three wash cycles 100 μl/well of HRPO-conjugated anti-human IgG secondary reagent (Jackson ImmunoResearch Inc.) diluted in blocking buffer is added to all wells. After 2 hours incubation at room temperature with agitation the plates are washed three-times and 100 μl/well of TMB substrate solution (equal amounts of solution A and B) are pipetted into all wells. […] The absorbance is measured at a wavelength of 450 nm (reference 650 nm).

[2] = target: T2, human insulin (human, UniProt P01308 25-54; P01308 90-110); experiment: direct ELISA, human insulin coated at 3 ug/ml, anti-human IgG-HRPO, OD 450 nm
T2 construct: Bought (Roche); coated at 3 ug/ml in the ELISA
Procedure: Fully human IgG1 antibodies that bound with high affinity to IGF-1 are also tested for binding to human IGF-1 in direct immunosorbent assays (ELISA). Assays are performed by coating human IGF-1 (R&D Systems, No. 291-G1) to 96-well Maxisorb plates at a concentration of 0.5 μg/ml overnight at 4° C. (100 μl/well). Coating buffer alone is used as a control for unspecific binding. Wells are then washed once with washing buffer (1×TBS-T) and residual binding sites are blocked with 200 μl blocking buffer for 1 hour at room temperature on an orbital shaker followed by a further wash cycle. Serial three-fold dilutions of each test antibody in blocking buffer are prepared directly on the coated plates. […] Blocking buffer alone is used as a positive control. The plates are then incubated for 2 hours at room temperature with agitation. After three wash cycles 100 μl/well of HRPO-conjugated anti-human IgG secondary reagent (Jackson ImmunoResearch Inc.) diluted in blocking buffer is added to all wells. After 2 hours incubation at room temperature with agitation the plates are washed three-times and 100 μl/well of TMB substrate solution (equal amounts of solution A and B) are pipetted into all wells. The plates are incubated for 10-20 min at RT with agitation and then the reaction is stopped by addition of 100 μl/well 1 M phosphoric acid. The absorbance is measured at a wavelength of 450 nm (reference 650 nm).

[3] = target: T3, mouse IGF-2 (mouse, UniProt P09535 25-91); experiment: direct ELISA, mouse IGF-2 coated on the plate, anti-human IgG-HRPO, OD 450 nm
T3 construct: Bought recombinant protein; also called murine IGF-2
Procedure: as §1

[4] = target: T4, human IGF-1 (human, UniProt P05019 49-118); experiment: cell-based or functional assay
[5] = target: T5, human IGF-2 (human, UniProt P01344 25-91); experiment: cell-based or functional assay
[6] = target: T4, human IGF-1; experiment: electrochemiluminescence-based equilibrium titration (BioVeris)
[7] = target: T6, rat IGF-1 (rat, UniProt P08025 49-118); experiment: direct ELISA, rat IGF-1 coated on the plate, anti-human IgG-HRPO, OD 450 nm
T6 construct: Bought recombinant protein
Procedure: as §1

[8] = target: T7, rat IGF-2 (rat, UniProt P01346 25-91); experiment: direct ELISA, rat IGF-2 coated on the plate, anti-human IgG-HRPO, OD 450 nm
T7 construct: Bought recombinant protein
Procedure: as §1

[9] = target: T5, human IGF-2; experiment: cell-based or functional assay; remark: listed apart in the source
[10] = target: T4, human IGF-1; experiment: SPR (Biacore 3000), antibody captured by anti-human Fc, IGF antigen flowed, 25 C
Procedure: (§2) The sensor chip is coated with approximately 1000 RU of the reference antibody in flow cell 1 and approximately 1000 RU of a rabbit-anti-human Fc-gamma-specific antibody in flow cell 2 using the coupling reagents from an amine coupling kit. A target of 1000 RU is set in the surface preparation wizard of the Biacore 3000 software at a flow rate of 5 μl/min Running buffer used is HBS-EP. […] Blank runs using running buffer only are run in-between. A blank run curve is subtracted from each binding curve before affinity analysis. Data evaluation is performed using the BIAevaluation software (version 4.1, Biacore, Freiburg, Germany). The dissociation and association phases of the kinetics are fitted separately. For the separate fit of the kdiss values a time-frame of the initial 200-300 seconds in the dissociation phase is used (range of steady decrease of signal). For the separate fit of the kₐₛₛ values, initial time frames of approx 100 seconds are used (range of steady increase of signal) and for calculation the individual kdiss values are used with the 1:1 Langmuir association model. The average values with the standard deviations of the kinetic data together with the corresponding dissociation (KD) and association (KA) constants are calculated.

[11] = target: T3, mouse IGF-2; experiment: as above
Procedure: as §2

[12] = target: T5, human IGF-2; experiment: as above
Procedure: as §2

[13] = target: T7, rat IGF-2; experiment: as above
Procedure: as §2

[14] = target: T6, rat IGF-1; experiment: as above
Procedure: as §2

[15] = target: T1, mouse IGF-1; experiment: as above
Procedure: as §2

[16] = target: T4, human IGF-1; experiment: cell-based or functional assay; remark: listed apart in the source
[17] = target: T5, human IGF-2; experiment: cell-based or functional assay; remark: listed apart in the source

T3 sequence (P09535 25-91 limits assumed): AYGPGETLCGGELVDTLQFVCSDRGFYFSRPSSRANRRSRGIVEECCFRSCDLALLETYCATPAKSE
T1 sequence (P05017 49-118 limits assumed): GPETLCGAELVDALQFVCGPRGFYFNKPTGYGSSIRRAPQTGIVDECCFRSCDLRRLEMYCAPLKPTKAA
T7 sequence (P01346 25-91 limits assumed): as the sequence (P09535 25-91 limits assumed) above, with G3R, G5S counted along it
T2 sequence (P01308 25-54 limits assumed, chain 1 of 2): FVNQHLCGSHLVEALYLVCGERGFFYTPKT
T2 sequence (P01308 90-110 limits assumed, chain 2 of 2): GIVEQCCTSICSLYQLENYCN
T4 sequence (P05019 49-118): as the sequence (P05017 49-118 limits assumed) above, with P20D, I35S, T67A, A69S counted along it
T6 sequence (P08025 49-118 limits assumed): as the sequence (P05017 49-118 limits assumed) above, with A69S counted along it
T5 sequence (P01344 25-91 limits assumed): as the sequence (P09535 25-91 limits assumed) above, with G3R, G5S, S22G, S32A, A35V, N36S counted along it

B1: antibody 60814 (antibody, human IgG1, lambda, V domains shown)
VH: QVELVESGGGLVQPGGSLRLSCAASGFTFSNYWMHWVRQAPGKGLEWVSGISGWSSWTYYADSVKGRFTISRDNSKNTLYLQMNSLRAEDTAVYYCARFGIDAYTKVYFDYWGQGTLVTVSS
VL: DIELTQPPSVSVAPGQTARISCSGDNIPLKYVSWYQQKPGQAPVLVIHDDNKRPSGIPERFSGSNSGNTATLTISGTQAEDEADYYCSSWDTLDIFNVFGGGTKLTVLG
notes: Fully human IgG1 with Ig lambda light chain
binding result [1]: binds
binding result [2]: no binding (tested: 50 ng/mL)
binding result [3]: binds
IC50 of IGF-1 induced COLO-205 cell proliferation [4]: 0.135 µg/mL
IC50 of IGF-1 induced MCF7 cell proliferation [4]: 0.0241 µg/mL
IC50 of IGF-2 induced COLO 205 cell proliferation [5]: 0.576 µg/mL
IC50 of IGF-2 induced MCF7 cell proliferation [5]: 0.0782 µg/mL
Kd [6]: 0.18 nM
binding result [7]: binds
binding result [8]: binds

B2: antibody 60819 (antibody, human IgG1, lambda, V domains shown)
VH: QVELVESGGGLVQPGGSLRLSCAASGFTFSNYWMHWVRQAPGKGLEWVSGISGWSSWTYYADSVKGRFTISRDNSKNTLYLQMNSLRAEDTAVYYCARFGIDAYTKVYFDYWGQGTLVTVSS
VL: DIELTQPPSVSVAPGQTARISCSGDNIPLKYVSWYQQKPGQAPVLVIHDDNKRPSGIPERFSGSNSGNTATLTISGTQAEDEADYYCQSYDYFPKFVVFGGGTKLTVLG
notes: as for B1
binding result [1]: binds
binding result [2]: no binding (tested: 50 ng/mL)
binding result [3]: binds
IC50 of IGF-1 induced COLO-205 cell proliferation [4]: 0.217 µg/mL
IC50 of IGF-1 induced MCF7 cell proliferation [4]: 0.054 µg/mL
IC50 of IGF-2 induced COLO 205 cell proliferation [5]: 0.101 µg/mL
IC50 of IGF-2 induced MCF7 cell proliferation [5]: 0.0408 µg/mL
Kd [6]: 0.19 nM
binding result [7]: binds
binding result [8]: binds

B3: antibody 60833 (antibody, human IgG1, lambda, V domains shown)
VH: QVELVESGGGLVQPGGSLRLSCAASGFTFTSYWMSWVRQAPGKGLELVSSITSYGSFTYYADSVKGRFTISRDNSKNTLYLQMNSLRAEDTAVYYCARNMYTHFDSWGQGTLVTVSS
VL: DIVLTQPPSVSGAPGQRVTISCSGSSSNIGSNSVSWYQQLPGTAPKLLIYDNSKRPSGVPDRFSGSKSGTSASLAITGLQSEDEADYYCQSRDTYGYYWVFGGGTKLTVLG
notes: as for B1
binding result [2]: no binding (tested: 50 ng/mL)
IC50 of IGF-1 induced COLO-205 cell proliferation [4]: 0.165 µg/mL
IC50 of IGF-1 induced MCF7 cell proliferation [4]: 0.0386 µg/mL
IC50 of IGF-2 induced COLO 205 cell proliferation [5]: 0.632 µg/mL
IC50 of IGF-2 induced MCF7 cell proliferation [5]: 0.0812 µg/mL
Kd [6]: 0.13 nM
IC50 of IGF-2 (100 ng/mL) induced IR-A phosphorylation, cell based ELISA [9]: 0.82 µg/mL
Kd [10]: 0.07 nM
koff [10]: 0.000301 s⁻¹
kon [10]: 4.74e+06 M⁻¹ s⁻¹
Kd [11]: 13.4 nM
koff [11]: 0.011 s⁻¹
kon [11]: 868000 M⁻¹ s⁻¹
Kd [12]: 0.913 nM
koff [12]: 0.00353 s⁻¹
kon [12]: 3.97e+06 M⁻¹ s⁻¹
Kd [13]: 2.41 nM
koff [13]: 0.00613 s⁻¹
kon [13]: 2.56e+06 M⁻¹ s⁻¹
Kd [14]: 0.07 nM
koff [14]: 0.000253 s⁻¹
kon [14]: 3.81e+06 M⁻¹ s⁻¹
Kd [15]: 0.33 nM
koff [15]: 0.000323 s⁻¹
kon [15]: 1e+06 M⁻¹ s⁻¹
IC50 of IGF-1 (20 ng/mL) induced IGF-1R phosphorylation, cell based ELISA [16]: 0.09 µg/mL
IC50 of IGF-2 (100 ng/mL) induced IGF-1R phosphorylation, cell based ELISA [17]: 1.12 µg/mL
